Assay results as given in patent US20240116985A1, “STAPLED PEPTIDES AND METHODS THEREOF” (priority 2020, published 2024).

How the values were obtained:
[1] = molecular target: full-length beta-Catenin (Uniprot ID P35222) (Homo sapiens (Human)) (UniProt P35222); test: fluorescence polarization competition; full-length beta-catenin, 5FAM-TCF4(10-53) probe displaced
Target sequence in this assay (P35222 whole entry): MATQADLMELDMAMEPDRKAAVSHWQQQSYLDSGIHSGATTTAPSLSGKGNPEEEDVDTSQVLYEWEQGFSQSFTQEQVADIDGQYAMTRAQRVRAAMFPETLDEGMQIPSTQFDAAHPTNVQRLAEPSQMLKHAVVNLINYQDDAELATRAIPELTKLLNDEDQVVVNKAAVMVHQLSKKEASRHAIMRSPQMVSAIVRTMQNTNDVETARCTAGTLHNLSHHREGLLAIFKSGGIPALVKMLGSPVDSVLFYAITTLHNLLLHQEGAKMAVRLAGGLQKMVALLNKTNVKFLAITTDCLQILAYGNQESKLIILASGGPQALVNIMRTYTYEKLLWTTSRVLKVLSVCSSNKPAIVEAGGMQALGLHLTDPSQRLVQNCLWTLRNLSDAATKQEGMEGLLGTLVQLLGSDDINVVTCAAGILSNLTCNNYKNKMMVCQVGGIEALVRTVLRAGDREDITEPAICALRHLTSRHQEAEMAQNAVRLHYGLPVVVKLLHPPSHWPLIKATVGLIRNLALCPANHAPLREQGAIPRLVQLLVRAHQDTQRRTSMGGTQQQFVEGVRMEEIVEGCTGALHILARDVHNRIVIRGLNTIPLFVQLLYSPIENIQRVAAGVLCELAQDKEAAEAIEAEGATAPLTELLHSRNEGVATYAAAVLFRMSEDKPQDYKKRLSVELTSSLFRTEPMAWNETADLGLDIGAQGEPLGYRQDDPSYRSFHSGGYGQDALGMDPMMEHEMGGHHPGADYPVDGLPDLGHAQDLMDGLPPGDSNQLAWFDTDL

[2] = molecular target: full-length beta-Catenin (Uniprot ID P35222) (Homo sapiens (Human)) (UniProt P35222); test: fluorescence polarization competition; displacement of 5FAM-TCF4(10-53) from full-length beta-catenin
Target sequence in this assay (P35222 whole entry): as above

[3] = molecular target: full-length beta-Catenin (Uniprot ID P35222) (Homo sapiens (Human)) (UniProt P35222); test: fluorescence polarization competition; full-length beta-catenin, 5FAM-TCF4(10-53) probe as competitor
Target sequence in this assay (P35222 2-781 limits assumed): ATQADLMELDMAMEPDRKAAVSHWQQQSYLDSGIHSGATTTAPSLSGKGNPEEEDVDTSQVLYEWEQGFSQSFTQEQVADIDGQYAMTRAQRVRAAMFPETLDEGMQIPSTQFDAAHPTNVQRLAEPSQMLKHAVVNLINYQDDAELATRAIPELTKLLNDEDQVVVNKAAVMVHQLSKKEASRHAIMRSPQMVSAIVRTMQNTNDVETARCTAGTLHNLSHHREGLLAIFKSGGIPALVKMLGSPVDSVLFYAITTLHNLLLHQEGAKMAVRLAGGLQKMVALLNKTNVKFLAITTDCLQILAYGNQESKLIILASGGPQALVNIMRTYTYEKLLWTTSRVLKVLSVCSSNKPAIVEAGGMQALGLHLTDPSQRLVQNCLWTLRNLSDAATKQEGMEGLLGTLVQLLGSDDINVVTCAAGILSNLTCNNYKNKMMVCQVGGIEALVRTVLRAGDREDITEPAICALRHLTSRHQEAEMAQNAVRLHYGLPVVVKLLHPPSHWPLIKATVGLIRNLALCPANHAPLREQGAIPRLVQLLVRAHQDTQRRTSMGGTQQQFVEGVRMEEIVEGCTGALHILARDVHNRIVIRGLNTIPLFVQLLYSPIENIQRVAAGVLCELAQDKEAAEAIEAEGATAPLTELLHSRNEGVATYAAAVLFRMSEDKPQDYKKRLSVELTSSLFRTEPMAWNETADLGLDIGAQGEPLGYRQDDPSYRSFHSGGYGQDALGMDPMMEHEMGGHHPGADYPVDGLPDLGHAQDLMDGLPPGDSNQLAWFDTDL

## Ac-PL3-Asp-Npg-B5-Asp-Asp-Ala-Ala-Phe-Leu-PyrS2-4CNF-BztA-Gln-NH2 (peptide)
[1]
  IC50: 987 nM

## I-1519: Ac-PL3-Asp-Cha-B5-Asp-Asp-Ala-Ala-Phe-Leu-PyrS2-3Thi-BztA-Gln-NH2 (peptide)
[2]
  IC50: 10 nM

## MeSO2-PL3-Asp-Npg-B5-Asp-TfeGA-Ala-Ala-Phe-Asn-PyrS2-3Thi-BztA-Gln-NH2 (peptide)
[1]
  IC50: 7 nM

## Ac-PL3-Asp-Npg-B5-Asp-[CH2CCpCO2H]TriAzDap-Ala-Ala-Phe-Leu-PyrS2-3Thi-BztA-Gln-NH2 (peptide)
[3]
  IC50: 5 nM

## Ac-PL3-Asp-Npg-B5-Asp-Asp-Ala-Ala-Phe-Leu-PyrS2-3CNF-BztA-Gln-NH2 (peptide)
[1]
  IC50: 81 nM

## Ac-PL3-Asp-Npg-B5-Asp-3COOHF-Ala-Ala-Phe-Leu-PyrS2-2F3MeF-2F3MeW-Gln-NH2 (peptide)
[3]
  IC50: 6290 nM

## Ac-PL3-Asp-Npg-B5-Asp-[CH2CChCO2H]TriAzDap-Ala-Ala-Phe-Leu-PyrS2-3Thi-BztA-Gln-NH2 (peptide)
[3]
  IC50: 5 nM

## Ac-PL3-Asp-Npg-B5-Asp-3COOHF-Ala-Ala-Phe-Leu-PyrS2-2F3MeF-SbMe2NapA-Gln-NH2 (peptide)
[3]
  IC50: 79 nM

## MeSO2-PL3-Asp-Npg-B5-Asp-Asp-Ala-Ala-Phe-Asn-PyrS2-3Thi-BztA-Gln-NH2 (peptide)
[1]
  IC50: 10 nM

## Ac-PL3-Asp-Npg-B5-Asp-Asp-Ala-Ala-Phe-Leu-PyrS2-2CNF-BztA-Gln-NH2 (peptide)
[1]
  IC50: 16 nM
